Results as given in patent publication US20020185139A1, “Methods for reducing postoperative intraocular pressure” (priority 2001, published 2002).

Test system: corneal endothelium
Parameters: species or system rabbits
Details: rabbit, in vivo
From the text: In order to investigate the effect of hyaluronidase on the postoperative endothelium, the eyes of the rabbits from Experiment 1 were studied by performing vital staining of the corneal endothelium of the rabbits.

hyaluronidase
endothelial damage (vital staining of corneal endothelium): no endothelial damage
